The values below come from patent US20080311034A1 (published 2008).

The target in assay [1] is T1, recombinant polyhistidine tagged mouse FcγRII (R&D Systems) (mouse, UniProt P08101 40-217, limits assumed).
T1 construct: Bought; also called FcRII
T1 sequence (looked up): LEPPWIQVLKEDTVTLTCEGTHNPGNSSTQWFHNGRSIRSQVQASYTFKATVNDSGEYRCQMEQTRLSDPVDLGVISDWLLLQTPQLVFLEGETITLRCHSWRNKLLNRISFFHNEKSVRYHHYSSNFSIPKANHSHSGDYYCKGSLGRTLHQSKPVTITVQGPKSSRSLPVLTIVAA
Put plainly: ELISA, His-tagged mouse receptor captured on copper-coated plate. The method, then: (§1) Commercially-available recombinant polyhistidine tagged mouse FcγRI, FcγRII, FcγRIII, and FcγRIV (R&D Systems) were diluted to 1 μg/ml in PBS and 100 μl/well was captured onto copper-coated plates (Pierce) overnight at 4° C. Plates were washed three times with wash buffer (0.15M NaCl, 0.02% Tween 20). Non-specific binding was blocked using 200 μl/well SuperBlock (Pierce) for 15 minutes at room temperature. Plates were washed three times as above. […] Plates were washed three times as above to remove unbound mAb. CNTO 860 variants that bound to plated receptors were detected using 100 μl/well HRP-labeled goat F(ab′)₂ anti-human IgG F(ab′)₂ (Jackson ImmunoResearch) diluted 1:5,000 in PBS incubated at room temperature for 1 hour. Plates were washed five times using wash buffer as above, and developed using 100 μl/well TMB Stable Stop substrate (Fitzgerald Industries) stopped with 0.5M HCl. Absorbance was detected at 450 nm.
(§2) All binding assays were in an ELISA format, with recombinant soluble receptor captured on coated EIA plates.

Assay [2] deals with T2, recombinant polyhistidine tagged mouse FcγRI (R&D Systems) (mouse, UniProt P26151 25-297).
T2 construct: Bought; also called murine FcγRI
T2 sequence (looked up): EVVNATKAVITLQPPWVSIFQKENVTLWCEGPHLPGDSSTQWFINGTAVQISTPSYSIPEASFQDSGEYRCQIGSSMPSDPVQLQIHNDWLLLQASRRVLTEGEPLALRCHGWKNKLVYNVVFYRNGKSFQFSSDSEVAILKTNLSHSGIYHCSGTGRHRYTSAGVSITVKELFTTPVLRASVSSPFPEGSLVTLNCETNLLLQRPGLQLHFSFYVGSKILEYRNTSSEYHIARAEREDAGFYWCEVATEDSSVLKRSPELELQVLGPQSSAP
The assay is described as above. The method, then: as §1, §2

For assay [3], the target named is T3, recombinant polyhistidine tagged mouse FcγRIII (R&D Systems) (mouse, UniProt P08508 31-215).
T3 construct: Bought
T3 sequence (looked up): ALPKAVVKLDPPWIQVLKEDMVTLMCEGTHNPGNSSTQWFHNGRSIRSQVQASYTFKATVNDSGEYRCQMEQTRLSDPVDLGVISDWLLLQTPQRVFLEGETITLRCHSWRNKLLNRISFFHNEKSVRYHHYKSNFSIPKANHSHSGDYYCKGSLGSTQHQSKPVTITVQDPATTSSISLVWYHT
The description is as above. The method, then:
as §1, §2

Assay [4] addresses T4, recombinant polyhistidine tagged mouse FcγRIV (R&D Systems) (mouse, UniProt A0A0B4J1G0 21-203).
T4 construct: Bought
T4 sequence: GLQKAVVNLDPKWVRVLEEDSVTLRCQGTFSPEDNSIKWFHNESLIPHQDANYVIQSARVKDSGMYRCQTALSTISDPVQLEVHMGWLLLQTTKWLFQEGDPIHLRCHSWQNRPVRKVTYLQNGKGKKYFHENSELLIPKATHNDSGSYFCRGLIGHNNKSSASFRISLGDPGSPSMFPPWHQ
The assay is described as above. The method, then: as §1, §2

Assay [5] concerns the target T5, recombinant human His-tagged FcγRIIa (R&D Systems #1330-CD-050) (human, UniProt P12318 36-218, limits assumed).
T5 construct: Bought; also called CD32a; recombinant, soluble, human FcγRIIa
T5 sequence (looked up): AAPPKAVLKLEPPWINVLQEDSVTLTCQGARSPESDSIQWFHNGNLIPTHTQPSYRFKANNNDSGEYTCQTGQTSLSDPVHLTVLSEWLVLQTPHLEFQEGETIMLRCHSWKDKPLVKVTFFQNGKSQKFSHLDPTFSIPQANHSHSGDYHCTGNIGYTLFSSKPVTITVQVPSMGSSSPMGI
Put plainly: AlphaScreen, His-tagged FcγRIIa on nickel acceptor beads. The method, then: FcγRIIa (CD32a) AlphaScreen—Nickel acceptor beads (Perkin Elmer #6760619C) were diluted 1:50 in assay buffer (PBS, pH 7.4, 4 mg/ml BSA, 0.01% Tween-20), and 27.5 μl were added to each well of a Nunc V-bottom polypropylene plate (VWR # 62409-108) (Powers G., Notebook 9006, pp. 169-175, 182-185). A 2.0 μg/ml solution of recombinant human His-tagged FcγRIIa (R&D Systems #1330-CD-050) was prepared in assay buffer and 27.5 μl added to each well of a separate Nunc V bottom polypropylene plate. Titrations of test Abs were prepared in the Nunc V bottom polypropylene plate starting at 30 μg/ml. A 2 μg/ml solution of biotinylated goat F(ab′)₂ anti-human IgG F(ab′)₂ (Jackson Immunoresearch #109-066-097) was prepared in assay buffer and 27.5 μl added to each well of another Nunc V bottom polypropylene plate. A 1:50 dilution of streptavidin donor beads (PerkinElmer # 6760002) was prepared in assay buffer and 27.5 μl added to each well of another Nunc V bottom polypropylene plate. A volume of 5 μl of each reagent was added to the corresponding quadrants of a low-volume, non-binding white 384-well plate (Corning # 3673) in the following order: acceptor beads, FcγRIIa, test Ab, biotinylated anti-human IgG F(ab′)₂, and streptavidin donor beads. The plates were incubated for 30 minutes with shaking and the O.D.s determined using an Envision plate reader.
A general note: Alpha assays give light when donor and acceptor beads are brought close together.

B1: YB2/0-CNTO 860 A330I (antibody, IgG1)
heavy: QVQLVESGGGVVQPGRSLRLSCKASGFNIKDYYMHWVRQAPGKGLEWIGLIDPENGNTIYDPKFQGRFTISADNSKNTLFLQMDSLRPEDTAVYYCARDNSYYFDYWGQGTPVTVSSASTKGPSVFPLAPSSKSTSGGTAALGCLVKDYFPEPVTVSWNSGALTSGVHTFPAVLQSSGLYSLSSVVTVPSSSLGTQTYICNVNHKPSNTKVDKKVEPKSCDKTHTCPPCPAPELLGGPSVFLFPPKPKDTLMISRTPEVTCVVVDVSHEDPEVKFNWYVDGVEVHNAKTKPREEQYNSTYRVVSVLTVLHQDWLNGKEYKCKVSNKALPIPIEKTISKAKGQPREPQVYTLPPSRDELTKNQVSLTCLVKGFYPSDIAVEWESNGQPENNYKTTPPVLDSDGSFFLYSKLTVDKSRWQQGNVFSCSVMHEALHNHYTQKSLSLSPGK
light: DIQMTQSPSSLSASVGDRVTITCKASQDIRKYLNWYQQKPGKAPKLLIYYATSLADGVPSRFSGSGSGTDYTFTISSLQPEDIATYYCLQHGESPYTFGQGTKLEITRTVAAPSVFIFPPSDEQLKSGTASVVCLLNNFYPREAKVQWKVDNALQSGNSQESVTEQDSKDSTYSLSSTLTLSKADYEKHKVYACEVTHQGLSSPVTKSFNRGEC
modifications: N-linked glycan at heavy chain Asn297 (YB2/0-type, low fucose); not carried by the letters
notes: IgG1/kappa Fc variant; stably expressed in YB2/0 cells (p4177/p2402); EU numbering; also called A330I (YB2/0 cell-derived); A330I mutant expressed in YB2/0 cells; copies: 2 + 2
As to B1, the “ECOD1 (concentration required for an O.D. value of 1.0)” value (from here on “ECOD1”) in assay [1] came to 7000 ng/mL; in assay [2] it was 25000 ng/mL; in assay [3] it was 8000 ng/mL; in assay [4], 15 ng/mL. In addition, the “concentration (ng/ml) required for a set O.D. signal” value (“concentration (ng/ml) required” below) in assay [5] was 450 ng/mL.

B2: CHO-CNTO 860 I332E/A330I (antibody, human IgG1, kappa)
heavy: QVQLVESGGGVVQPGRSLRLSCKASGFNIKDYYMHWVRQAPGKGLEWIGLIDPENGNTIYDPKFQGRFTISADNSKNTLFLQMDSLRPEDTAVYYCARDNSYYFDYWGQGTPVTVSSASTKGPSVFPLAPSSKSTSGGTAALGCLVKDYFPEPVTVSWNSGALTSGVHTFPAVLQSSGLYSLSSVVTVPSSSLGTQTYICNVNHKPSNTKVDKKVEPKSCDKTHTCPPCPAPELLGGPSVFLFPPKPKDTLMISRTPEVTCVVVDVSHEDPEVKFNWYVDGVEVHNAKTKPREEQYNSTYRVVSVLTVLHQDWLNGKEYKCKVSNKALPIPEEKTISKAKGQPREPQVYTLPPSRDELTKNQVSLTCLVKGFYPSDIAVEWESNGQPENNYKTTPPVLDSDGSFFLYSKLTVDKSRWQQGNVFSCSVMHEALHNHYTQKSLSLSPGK
light: DIQMTQSPSSLSASVGDRVTITCKASQDIRKYLNWYQQKPGKAPKLLIYYATSLADGVPSRFSGSGSGTDYTFTISSLQPEDIATYYCLQHGESPYTFGQGTKLEITRTVAAPSVFIFPPSDEQLKSGTASVVCLLNNFYPREAKVQWKVDNALQSGNSQESVTEQDSKDSTYSLSSTLTLSKADYEKHKVYACEVTHQGLSSPVTKSFNRGEC
modifications: Heavy chain N297 carries the CHO-type N-linked glycan (about 95% fucosylated); not carried by the letters.
notes: IgG1/kappa Fc variant; transiently expressed in CHO cells (p4185/p4146); EU numbering; also called A330I/I332E (CHO cell-derived); A330I/I332E variant from CHO cells; copies: 2 + 2
As to B2, the “ECOD1” value is 600 ng/mL in assay [1], 3000 ng/mL in assay [2], 800 ng/mL in assay [3] and 18 ng/mL in assay [4]. Further, the “concentration (ng/ml) required” value in assay [5] was determined as 900 ng/mL.

B3: CHO-CNTO 860 I332E/S239D (antibody, human IgG1, kappa)
heavy: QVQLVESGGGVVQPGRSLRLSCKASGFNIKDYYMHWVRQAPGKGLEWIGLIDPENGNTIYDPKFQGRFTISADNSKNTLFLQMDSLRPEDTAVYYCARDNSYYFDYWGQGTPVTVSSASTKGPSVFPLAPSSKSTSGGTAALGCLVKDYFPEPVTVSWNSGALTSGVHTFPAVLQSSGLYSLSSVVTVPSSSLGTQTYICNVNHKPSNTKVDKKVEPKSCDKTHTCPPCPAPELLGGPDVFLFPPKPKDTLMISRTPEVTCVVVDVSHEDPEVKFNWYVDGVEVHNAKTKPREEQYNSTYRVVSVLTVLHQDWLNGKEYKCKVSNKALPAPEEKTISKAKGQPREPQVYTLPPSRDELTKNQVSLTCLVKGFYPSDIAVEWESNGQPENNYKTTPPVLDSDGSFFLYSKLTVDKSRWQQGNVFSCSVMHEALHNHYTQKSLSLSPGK
light: DIQMTQSPSSLSASVGDRVTITCKASQDIRKYLNWYQQKPGKAPKLLIYYATSLADGVPSRFSGSGSGTDYTFTISSLQPEDIATYYCLQHGESPYTFGQGTKLEITRTVAAPSVFIFPPSDEQLKSGTASVVCLLNNFYPREAKVQWKVDNALQSGNSQESVTEQDSKDSTYSLSSTLTLSKADYEKHKVYACEVTHQGLSSPVTKSFNRGEC
modifications: Heavy chain N297 carries the CHO-type N-linked glycan (about 95% fucosylated); not carried by the letters.
notes: IgG1/kappa Fc variant; transiently expressed in CHO cells (p4186/p4146); EU numbering; also called S239D/I332E (CHO cell-derived); copies: 2 + 2
On to B3, for which the “ECOD1” value in assay [1] amounted to 900 ng/mL; in assay [2], 1700 ng/mL; in assay [3] it was 1100 ng/mL; in assay [4], 11 ng/mL. The “concentration (ng/ml) required” value in assay [5] turned out to be 75 ng/mL.

B4: CHO-CNTO 860 A330I (antibody, IgG1)
heavy: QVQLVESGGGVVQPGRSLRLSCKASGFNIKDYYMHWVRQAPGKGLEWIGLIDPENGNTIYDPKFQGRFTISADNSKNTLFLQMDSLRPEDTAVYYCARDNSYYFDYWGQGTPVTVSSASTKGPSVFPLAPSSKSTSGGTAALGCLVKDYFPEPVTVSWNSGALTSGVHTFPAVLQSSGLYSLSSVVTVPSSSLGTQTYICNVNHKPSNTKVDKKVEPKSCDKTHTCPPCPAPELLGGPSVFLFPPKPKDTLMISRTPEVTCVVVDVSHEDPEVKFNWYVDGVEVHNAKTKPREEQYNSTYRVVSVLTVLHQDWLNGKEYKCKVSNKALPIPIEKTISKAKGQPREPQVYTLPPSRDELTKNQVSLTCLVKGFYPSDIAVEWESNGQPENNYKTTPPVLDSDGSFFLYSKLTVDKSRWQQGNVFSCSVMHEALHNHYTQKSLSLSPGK
light: DIQMTQSPSSLSASVGDRVTITCKASQDIRKYLNWYQQKPGKAPKLLIYYATSLADGVPSRFSGSGSGTDYTFTISSLQPEDIATYYCLQHGESPYTFGQGTKLEITRTVAAPSVFIFPPSDEQLKSGTASVVCLLNNFYPREAKVQWKVDNALQSGNSQESVTEQDSKDSTYSLSSTLTLSKADYEKHKVYACEVTHQGLSSPVTKSFNRGEC
modifications: N-linked glycan at Asn297 of the heavy chain (CHO-type, highly fucosylated); not carried by the letters
notes: IgG1/kappa Fc variant; EU numbering; also called A330I (CHO cell-derived); copies: 2 + 2
Regarding B4, the “ECOD1” value in assay [1] turned out to be 8000 ng/mL; in assay [2], 90000 ng/mL; in assay [3] it was 12000 ng/mL; in assay [4], 130 ng/mL. The “concentration (ng/ml) required” value in assay [5] was 2250 ng/mL.

B5: CHO-CNTO 860 A330Y (antibody, human IgG1, kappa)
heavy: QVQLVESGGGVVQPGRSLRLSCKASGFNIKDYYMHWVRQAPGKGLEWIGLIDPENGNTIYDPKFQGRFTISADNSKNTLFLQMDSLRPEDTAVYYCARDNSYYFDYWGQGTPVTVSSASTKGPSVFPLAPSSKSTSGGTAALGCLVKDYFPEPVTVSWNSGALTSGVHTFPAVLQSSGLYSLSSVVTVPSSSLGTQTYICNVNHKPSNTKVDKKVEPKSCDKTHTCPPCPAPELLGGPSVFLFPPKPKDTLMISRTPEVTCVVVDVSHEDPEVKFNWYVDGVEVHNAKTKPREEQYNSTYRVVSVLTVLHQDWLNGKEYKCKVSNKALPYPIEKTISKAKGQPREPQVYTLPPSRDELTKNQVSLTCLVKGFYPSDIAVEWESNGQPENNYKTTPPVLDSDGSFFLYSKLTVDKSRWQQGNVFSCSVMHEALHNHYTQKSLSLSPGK
light: DIQMTQSPSSLSASVGDRVTITCKASQDIRKYLNWYQQKPGKAPKLLIYYATSLADGVPSRFSGSGSGTDYTFTISSLQPEDIATYYCLQHGESPYTFGQGTKLEITRTVAAPSVFIFPPSDEQLKSGTASVVCLLNNFYPREAKVQWKVDNALQSGNSQESVTEQDSKDSTYSLSSTLTLSKADYEKHKVYACEVTHQGLSSPVTKSFNRGEC
modifications: N-linked glycan at Asn297 of the heavy chain (CHO-type, highly fucosylated); not carried by the letters
notes: IgG1/kappa Fc variant; transiently expressed in CHO cells (p4183/p4146); EU numbering; also called A330Y (CHO cell-derived); copies: 2 + 2
With B5, the “ECOD1” value came to 2700 ng/mL in assay [1], 5000 ng/mL in assay [2], 4000 ng/mL in assay [3] and 100 ng/mL in assay [4]. Besides, in assay [5], the “concentration (ng/ml) required” value came out at 142 ng/mL.
